For experiment [1], the target named is T1, alpha-cobratoxin (Naja kaouthia, UniProt P01391).
T1 chain: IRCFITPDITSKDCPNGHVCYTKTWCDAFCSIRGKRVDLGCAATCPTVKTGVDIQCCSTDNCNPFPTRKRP
In words: BLI. (In general: BLI is a label-free optical method that tracks binding on a fibre tip over time.)

The target of experiment [2] is T2, alpha-bungarotoxin (Bungarus multicinctus, UniProt P60615). In words: BLI.
In experiment [3] the target is T1, alpha-cobratoxin. In words: BLI.
The target of experiment [4] is T1, alpha-cobratoxin. In words: BLI.
Experiment [5] addresses T1, alpha-cobratoxin. The experiment is described as follows: BLI.
In experiment [6] the target is T1, alpha-cobratoxin. In words: SPR. For orientation: In SPR one partner is held on a chip, and binding of the other changes the refractive index at the surface.
In experiment [7] the target is T2, alpha-bungarotoxin. The experiment is described as follows: BLI. This is another data set of the same source.
Experiment [8] addresses T1, alpha-cobratoxin. The experiment is described as follows: SPR.

Where two headings read alike, the source gives them in different places.

T2 sequence (P60615 22-95): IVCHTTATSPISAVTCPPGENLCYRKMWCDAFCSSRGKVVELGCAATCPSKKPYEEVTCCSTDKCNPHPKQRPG

B1: 2554_01_D11 (antibody, V domains shown)
VH: QVQLVQSGAEVKKPGSSVKVSCKASGGTFSSYAISWVRQAPGQGLEWMGGIIPIFGTANYAQKFQGRVTITADESTSTAYMELRSLRSDDTAVYYCARDNLGYCSGGSCYSDYYYYYMDVWGQGTLVTVSS
VL: SNFMLTQPRSVSESPGKTVTISCTRSSGSIGSDYVHWYQQRPGSSPTTVIYEDNQRPSGVPDRFSGSIDSSSNSASLTISGLKTEDEADYYCQSYDRSNHEVVFGGGTKLTVL
Turning to B1, the Kd in experiment [1] is 2.9 nM; in experiment [2], 122 nM; in experiment [3] it was 2.91 nM; in experiment [6] it was 2.3 nM; in experiment [8] it was 10.4 nM. Also, the koff came to 0.000327 s⁻¹ in experiment [4], 0.000396 s⁻¹ in experiment [5] and 0.00388 s⁻¹ in experiment [7].

One may read the Kd as a measure of binding affinity in units of concentration. The low end stands for higher affinity, the high end for lower affinity. As a reminder, the koff is the first-order rate constant of dissociation. Read a high koff as fast dissociation.

Source of the values: patent publication US20260317413 (published 2026).
